US20240158497A1 (published 2024)

T1: human GP130 extracellular domain expressed with a C-terminal mouse IgG2a Fc tag (hGP130-mFc) (human)
T1 construct: also called dimeric human GP130
T1 chain: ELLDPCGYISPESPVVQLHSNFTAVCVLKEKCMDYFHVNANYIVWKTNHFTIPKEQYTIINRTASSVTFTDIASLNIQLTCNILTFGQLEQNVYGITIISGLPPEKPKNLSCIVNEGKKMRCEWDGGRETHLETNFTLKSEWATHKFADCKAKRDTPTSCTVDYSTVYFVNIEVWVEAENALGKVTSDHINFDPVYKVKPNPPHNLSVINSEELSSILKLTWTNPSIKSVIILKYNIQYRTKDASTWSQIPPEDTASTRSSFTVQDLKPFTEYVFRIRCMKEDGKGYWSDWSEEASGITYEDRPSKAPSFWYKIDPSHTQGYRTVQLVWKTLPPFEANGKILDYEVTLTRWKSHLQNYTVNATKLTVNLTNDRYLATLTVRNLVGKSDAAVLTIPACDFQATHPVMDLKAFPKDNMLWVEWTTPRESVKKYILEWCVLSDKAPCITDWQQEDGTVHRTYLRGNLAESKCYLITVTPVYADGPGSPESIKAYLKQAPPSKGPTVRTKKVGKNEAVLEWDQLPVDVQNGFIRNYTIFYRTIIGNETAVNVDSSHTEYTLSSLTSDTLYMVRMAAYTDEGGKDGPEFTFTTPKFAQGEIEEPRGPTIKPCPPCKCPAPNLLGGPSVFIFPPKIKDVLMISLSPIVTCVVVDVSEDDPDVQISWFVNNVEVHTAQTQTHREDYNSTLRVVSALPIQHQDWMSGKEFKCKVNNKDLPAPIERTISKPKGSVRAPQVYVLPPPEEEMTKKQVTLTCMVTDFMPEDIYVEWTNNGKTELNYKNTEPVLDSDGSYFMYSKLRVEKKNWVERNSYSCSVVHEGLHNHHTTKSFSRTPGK

T2: Macaca fascicularis GP130 extracellular domain expressed with a C-terminal myc-myc-hexahistidine tag (Macaca fascicularis, UniProt P40189 23-619 (human entry))
T2 construct: Monomeric reagent; also called mfGP130-mmH; mfGP130-MMH
T2 chain: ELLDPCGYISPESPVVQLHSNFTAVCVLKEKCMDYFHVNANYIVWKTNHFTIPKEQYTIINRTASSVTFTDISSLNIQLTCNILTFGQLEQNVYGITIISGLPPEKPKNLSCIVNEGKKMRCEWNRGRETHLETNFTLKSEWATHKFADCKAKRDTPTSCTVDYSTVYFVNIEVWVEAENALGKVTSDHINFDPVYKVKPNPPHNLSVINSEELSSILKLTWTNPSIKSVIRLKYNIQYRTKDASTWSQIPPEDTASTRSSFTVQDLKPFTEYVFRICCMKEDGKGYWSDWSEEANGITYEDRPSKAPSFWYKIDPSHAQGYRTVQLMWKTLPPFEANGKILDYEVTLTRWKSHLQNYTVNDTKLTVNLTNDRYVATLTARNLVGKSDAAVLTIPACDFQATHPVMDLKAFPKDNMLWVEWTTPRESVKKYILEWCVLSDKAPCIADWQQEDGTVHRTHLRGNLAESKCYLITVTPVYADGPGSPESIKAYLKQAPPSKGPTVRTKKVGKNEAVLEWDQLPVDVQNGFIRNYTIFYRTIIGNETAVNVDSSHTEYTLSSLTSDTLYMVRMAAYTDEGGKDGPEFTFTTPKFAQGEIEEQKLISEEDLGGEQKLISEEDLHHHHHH

B1: MAb16622 (antibody, V domains shown)
VH: EVQLVESGGGVVRPGGSLRLSCTASGFTFDDYGMSWVRQAPGKGLEWVSGINWNGGRTEYADAVKGRFIISRDNAKNSLYLQMNSLRAEDTALYFCARTELRWDYWGQGTLVTVSS
VL: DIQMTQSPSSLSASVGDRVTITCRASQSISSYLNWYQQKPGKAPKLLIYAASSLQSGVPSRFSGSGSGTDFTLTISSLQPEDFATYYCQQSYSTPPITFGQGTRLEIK
notes: captured through anti-human Fc
B2: MAb16614 (antibody, V domains shown)
VH: QVQLVESGGGVVQPGGSLRLSCAASGFTFSTYDIHWVRQAPGKGLEWVAVISFDGSNRNYGDSVKGRFTISRDNSDNTLFLEMNNLRFEDTAVYYCAKEGYGVDFQHWGQGTLVTVSS
VL: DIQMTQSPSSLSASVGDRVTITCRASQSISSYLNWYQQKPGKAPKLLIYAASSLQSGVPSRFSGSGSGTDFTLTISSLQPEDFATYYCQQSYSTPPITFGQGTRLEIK
notes: as for B1
B3: MAb16682 (antibody, V domains shown)
VH: EVQLVESGGGLVQPGGSLRLSCAASGFTFSTYWMNWVRQAPGKGLEWVANIKEDGSEKYYVDSVKGRFTISRDNAKNSLYLQMNSLRAEDTAVYYCAREGFGVVTYIWGQGTMVTVSS
VL: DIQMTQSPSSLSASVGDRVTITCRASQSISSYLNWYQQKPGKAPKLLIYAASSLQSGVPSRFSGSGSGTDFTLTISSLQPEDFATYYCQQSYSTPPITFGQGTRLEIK
B4: MAb16680 (antibody, V domains shown)
VH: QVQLQQSGPGQMKSSQTLTLTCAISGDSVSSNSAIWYWIRQSPSRGLEWLGRTKFRSKWYNDFALSMKSRITINPDTSKNQFSLHLNSVTPEDTAVYYCARYKWELYFDYWGQGTLVTVSS
VL: not shown
notes: hIgG4 isotype control used
B5: MAb16680 (antibody, V domains shown)
VH: QVQLQQSGPGQMKSSQTLTLTCAISGDSVSSNSAIWYWIRQSPSRGLEWLGRTKFRSKWYNDFALSMKSRITINPDTSKNQFSLHLNSVTPEDTAVYYCARYKWELYFDYWGQGTLVTVSS
VL: not shown
notes: as for B1
B6: MAb16618 (antibody, V domains shown)
VH: QVQLQESGPGLVKPSETLSLTCTVSGGSISNYYWTWIRQPPGKGLEWIGHISNSGTTNYNPSLKSRVTISVDTSKNQFSLKLTSVTAADTAVYYCARLPLGIAAVDTDYYYYFGMDVWGQGTTVTVSS
VL: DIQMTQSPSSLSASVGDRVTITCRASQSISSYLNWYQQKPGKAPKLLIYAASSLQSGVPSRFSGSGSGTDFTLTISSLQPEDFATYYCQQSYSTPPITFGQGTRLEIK
notes: as for B1
B7: MAb16683 (antibody, V domains shown)
VH: QVQLVESGGGLVKPGGSLRLSCAASGFTFSDYYMTWIRQTPGKGLDWVSYISSSGTNKYNADSVKGRFTISRDNAKNSLYLQMNSLRAEDTAVYYCVRDPPWGMDVWGQGTTVTVSS
VL: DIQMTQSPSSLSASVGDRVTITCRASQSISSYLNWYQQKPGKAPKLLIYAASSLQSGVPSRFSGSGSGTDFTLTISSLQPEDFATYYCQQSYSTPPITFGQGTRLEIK

Experiments:
[1] = biological target: T3, rat GP130 extracellular domain expressed with a C-terminal myc-myc-hexahistidine tag (rGP130-mmH) (rat, UniProt P40190 23-618); assay: SPR Biacore, mAb captured via anti-hFc, 25 C
T3 construct: Monomeric; the entry includes the myc-myc-His tag
Procedure: (§1) Equilibrium dissociation constant (KD) for different GP130 reagents binding to purified anti-GP130 monoclonal antibodies were determined using a real-time surface plasmon resonance based Biacore 4000 biosensor. All binding studies were performed in 10 mM HEPES, 150 mM NaCl, 3 mM EDTA, and 0.05% v/v Surfactant Tween-20, pH 7.4 (HBS-ET) running buffer at 25° C. and 37° C. The Biacore sensor surface was first derivatized by amine coupling with a monoclonal mouse anti-human Fc antibody (GE, #BR-1008-39) to capture anti-GP130 monoclonal antibodies. […] Reagents tagged with “mmH” are monomeric, whereas reagents tagged with “mFc” are dimeric. Thus, for example, “hGP130-mmH” is also referred to as “monomeric human GP130,” and “hGP130-mFc” is also referred to as “dimeric human GP130.”
(§2) The association rate (k a) and dissociation rate (kd) were determined by fitting the real-time binding sensorgrams to a 1:1 binding model with mass transport limitation using Scrubber 2.0c curve-fitting software. Binding dissociation equilibrium constant (KD) and dissociative half-life (t ½) were calculated from the kinetic rates as: […]

[2] = biological target: T1, human GP130 extracellular domain …; assay: SPR Biacore, mAb captured via anti-hFc, 25 C
Procedure: as §1, §2

[3] = biological target: T4, mouse GP130 extracellular domain expressed with a C-terminal myc-myc-hexahistidine tag (mGP130-mmH) (mouse, UniProt Q00560 23-617); assay: SPR Biacore, mAb captured via anti-hFc, 25 C
T4 construct: Monomeric; the entry includes the myc-myc-His tag
Procedure: as §1, §2

[4] = biological target: T3, rat GP130 extracellular domain …; assay: SPR Biacore, mAb captured via anti-hFc, 37 C
Procedure: as §1, §2

[5] = biological target: T1, human GP130 extracellular domain …; assay: SPR Biacore, mAb captured via anti-hFc, 37 C
Procedure: as §1, §2

[6] = biological target: T4, mouse GP130 extracellular domain …; assay: SPR Biacore, mAb captured via anti-hFc, 37 C
Procedure: as §1, §2

[7] = biological target: T2, Macaca fascicularis GP130 extracellular …; assay: SPR (Biacore 4000), mAb captured on anti-human Fc, 25 C
Procedure: as §1, §2

[8] = biological target: T2, Macaca fascicularis GP130 extracellular …; assay: SPR (Biacore 4000), mAb captured on anti-human Fc, 37 C
Procedure: as §1, §2

[9] = biological target: T5, human GP130 extracellular domain expressed with a C-terminal myc-myc-hexahistidine tag (human, UniProt P40189 23-619); assay: as above
T5 construct: Monomeric reagent; also called hGP130-mmH; hGP130-MMH
Procedure: as §1, §2

[10] = biological target: T6, human GP130 delta D1-D3 with C-terminal myc-myc hexahistidine tag (human, UniProt P40189 329-619); assay: Luminex, antigen captured on anti-myc beads
T6 construct: used as CHO supernatant; also called human GP130 delta D1-D3-MMH; GP130 Delta D1-D3 extracellular domain
Procedure: Aliquots of microspheres with immobilized anti-myc monoclonal antibodies, prepared as described above, were added individually to 1 mL of the each of these protein supernatants and to 500 uL of purified GP130 protein. The microspheres were gently mixed, incubated for two hours at 25° C., washed twice with 1 mL of DBPS, centrifuged to remove the supernatant and finally resuspended in 1 mL of DPBS buffer. Forty eight μL of anti-myc IgG coupled microspheres from individual reactions with full length human GP130 and with each of the human GP130 domain proteins were withdrawn and mixed together in 3.6 mL of PBS+20 mg/mL BSA+0.05% sodium azide (blocking buffer).
From this mixed pool, 75 μL of microspheres were plated per well on a 96 well filter plate (Millipore, Cat. No: MSBVN1250) and mixed with 25 μL of individual anti-human GP130 monoclonal antibodies (0.5 or 5 μg/mL), incubated for two hours at 25° C. and then washed twice with 200 μL of DPBS with 0.05% Tween 20 (washing buffer). To detect and quantify the amounts of bound anti-GP130 antibody levels to individual microspheres, either 100 μL of 2.5 μg/mL R-Phycoerythrin conjugated goat F(ab′)2 anti-human kappa (Southern Biotech, Cat #2063-09) in blocking buffer, was added and incubated for 30 minutes at 25° C. After 30 minutes, the samples were washed twice with 200 μL of washing buffer and resuspended in 150 μL of wash buffer. The Median Fluorescence intensity (MFI) of the microspheres was measured in a Luminex Analyzer.

Row | Binder | 100 nM Ag Bound (RU) [1] [RU] | binding result [1] | 100 nM Ag Bound (RU) [2] [RU] | Kd [2] [nM] | koff [2] [s⁻¹] | kon [2] [M⁻¹ s⁻¹] | t½ [2] [min] | 100 nM Ag Bound (RU) [3] [RU] | binding result [3] | 100 nM Ag Bound (RU) [4] [RU] | 100 nM Ag Bound (RU) [5] [RU] | Kd [5] [nM] | koff [5] [s⁻¹] | kon [5] [M⁻¹ s⁻¹] | t½ [5] [min] | 100 nM Ag Bound (RU) [6] [RU] | other results
1 | B1 | 0 | no binding (tested: 100 nM) | 164 | 0.615 | 0.000306 | 497000 | 38 | 1 | no binding (tested: 100 nM) | 1 | 201 | 1.29 | 0.000825 | 639000 | 14 | 1 | –
2 | B2 | 0 | no binding (tested: 100 nM) | 83 | 4.47 | 0.000383 | 85700 | 30 | 1 | no binding (tested: 100 nM) | 0 | 85 | 9.56 | 0.00172 | 180000 | 7 | 0 | –
3 | B3 | – | – | – | – | – | – | – | – | – | – | – | – | – | – | – | – | 100 nM Ag Bound [7]: 20 RU; Kd [7]: 132 nM; koff [7]: 0.0168 s⁻¹; kon [7]: 128000 M⁻¹ s⁻¹; t½ [7]: 0.7 min; 100 nM Ag Bound [8]: 15 RU; Kd [8]: 124 nM; koff [8]: 0.0386 s⁻¹; kon [8]: 311000 M⁻¹ s⁻¹; t½ [8]: 0.3 min; 100 nM Ag Bound [9]: 16 RU; Kd [9]: 113 nM; koff [9]: 0.0341 s⁻¹; kon [9]: 301000 M⁻¹ s⁻¹; t½ [9]: 0.3 min
4 | B4 | – | – | – | – | – | – | – | – | – | – | – | – | – | – | – | – | Luminex MFI signal [10]: 18700 MFI
5 | B5 | 2 | no binding (tested: 100 nM) | – | – | – | – | – | 0 | – | 1 | – | – | – | – | – | 0 | binding result [6]: no binding (tested: 100 nM)
6 | B6 | 6 | no binding (tested: 100 nM) | 202 | 0.236 | 0.000279 | 1.19e+06 | 41 | 1 | no binding (tested: 100 nM) | 2 | 236 | 0.674 | 0.000934 | 1.39e+06 | 12 | 0 | –
7 | B7 | – | – | – | – | – | – | – | – | – | – | – | – | – | – | – | – | 100 nM Ag Bound [7]: 59 RU; Kd [7]: 37.4 nM; koff [7]: 0.00246 s⁻¹; kon [7]: 65700 M⁻¹ s⁻¹; t½ [7]: 5 min; 100 nM Ag Bound [8]: 43 RU; Kd [8]: 125 nM; koff [8]: 0.0121 s⁻¹; kon [8]: 96500 M⁻¹ s⁻¹; t½ [8]: 1 min; 100 nM Ag Bound [9]: 38 RU; Kd [9]: 117 nM; koff [9]: 0.0125 s⁻¹; kon [9]: 107000 M⁻¹ s⁻¹; t½ [9]: 0.9 min
